Test results reported in the supplement of paper PMC10724198.
± gives the standard deviation of the averaged measurements.

System: Saccharomyces cerevisiae
Assay: protein stability index of tFT-peptide fusion (C-terminal peptide) (PSI (0-1 scale)); higher = more stable (slower turnover)
Conditions: genetic background: wild type; temperature: 30 C
Description: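 Multiplexed protein stability (MPS) profiling in S. cerevisiae. Random 12-aa peptides (tFT-X12 library) are fused to the C-terminus of a sfGFP-mCherry tandem fluorescent timer, after mCherry and a GGGS linker. Cells are FACS-sorted into 8 mCherry/sfGFP bins and deep-sequenced. The protein stability index (PSI) is the read-weighted bin average, scaled from 0 (unstable) to 1 (stable). Only peptides with >10 reads are reported; cells were grown at 30 °C in SC-His with glucose.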
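Note: PSI is a weighted mean of sequencing reads over stability bins, variants kept only with over 10 reads, mCherry proximal and sfGFP distal, peptide attached via GGGS linker.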

## SRACTRRSHTLE
  protein stability index: 0.681 ± 0.032

## CYGAYLVSQWGS
  protein stability index: 0.697 ± 0.028

## PPQPTSPIRMPT
  protein stability index: 0.735 ± 0.03

## QTPNRTPIRPPP
  protein stability index: 0.716 ± 0.0093

## APPPPFCHAPTS
  protein stability index: 0.6366 ± 0.00082

## VSGEGRGRTTPD
  protein stability index: 0.665 ± 0.013

## TCLWVCARGFGG
  protein stability index: 0.693 ± 0.021

## VVGWSSGVVEVA
  protein stability index: 0.688 ± 0.035

## PPPRPPPASPVP
  protein stability index: 0.708 ± 0.076

## AQTRSVGWEFGY
  protein stability index: 0.685 ± 0.0093

## GEAGICAGTAGG
  protein stability index: 0.693 ± 0.041

## HTFSRLHSLPIR
  protein stability index: 0.693 ± 0.0082

## PNPPPPPPPSSP
  protein stability index: 0.742 ± 0.058

## RPRKTVTDLMAG
  protein stability index: 0.663 ± 0.01

## LKKKKNKKQKTE
  protein stability index: 0.6152 ± 0.0053

## DSFLLSSKICWT
  protein stability index: 0.745 ± 0.0069

## GYGLGVEAEGLE
  protein stability index: 0.715 ± 0.054

## EGYEATYLGVFV
  protein stability index: 0.706 ± 0.031

## DWLAFSYYFSVV
  protein stability index: 0.599 ± 0.041

## VYGRRNVRLNIV
  protein stability index: 0.582 ± 0.068

## SLILSAGLGFFF
  protein stability index: 0.719 ± 0.095

## PPRVPCLVPKSR
  protein stability index: 0.715 ± 0.014

## IRLMTTIITYMI
  protein stability index: 0.44 ± 0.13

## RGFKEPLSFKAG
  protein stability index: 0.613 ± 0.059

## HSCSRPLTPPPF
  protein stability index: 0.72 ± 0.028

## WCGGGGRGGVAG
  protein stability index: 0.72 ± 0.047

## SYGIETRLKGKK
  protein stability index: 0.63 ± 0.082

## IVSVSLYLYHFR
  protein stability index: 0.548 ± 0.0059

## CNIASTLEKTCP
  protein stability index: 0.7043 ± 0.0062

## GGWPLSPSFGWG
  protein stability index: 0.571

## PLLAPVPLTLTP
  protein stability index: 0.722 ± 0.022

## SRASTGPPPPGT
  protein stability index: 0.692 ± 0.026

## GLCGVVFGGRGE
  protein stability index: 0.657 ± 0.064

## TWVPYIIMKRER
  protein stability index: 0.669 ± 0.019

## LPLPPLPPGMLS
  protein stability index: 0.747 ± 0.073

## GLPTPSNVPPFG
  protein stability index: 0.703 ± 0.01

## YCLERVPAEYDG
  protein stability index: 0.67 ± 0.019

## SLVAFAKMANFV
  protein stability index: 0.633 ± 0.044

## EIKEEKEHRNQE
  protein stability index: 0.696 ± 0.052

## RPLLIYSPFPLF
  protein stability index: 0.662 ± 0.075

## YVPTPSRPRRNR
  protein stability index: 0.718 ± 0.066

## GGGFLGGTVAAV
  protein stability index: 0.7 ± 0.032

## WGFGRCELMLGS
  protein stability index: 0.708 ± 0.035

## PLRPPPRPRQTH
  protein stability index: 0.671 ± 0.056

## PLPFSPPFPPSS
  protein stability index: 0.732 ± 0.055

## LFVSGVPRSWDR
  protein stability index: 0.707 ± 0.19

## DAVRRSSLSLAT
  protein stability index: 0.711 ± 0.16

## VGKSNKYEETHK
  protein stability index: 0.747 ± 0.06

## KKKKNKKEEHVE
  protein stability index: 0.715 ± 0.02

## GGGVSFWLGVVA
  protein stability index: 0.6211 ± 0.0026

## RFGWRRGRVGSS
  protein stability index: 0.734 ± 0.038

## SRLLPPLPPLSP
  protein stability index: 0.767 ± 0.097

## GASGGGQSSFGE
  protein stability index: 0.669 ± 0.013

## PYVAFMLPSPWQ
  protein stability index: 0.672 ± 0.033

## AVWGWAFASVGG
  protein stability index: 0.735 ± 0.04

## GAWWRMEQAFGV
  protein stability index: 0.757 ± 0.034

## PPPPPPGSPTRP
  protein stability index: 0.788 ± 0.075

## VAWAQPSGSKAC
  protein stability index: 0.697 ± 0.046

## DPPDPASIHLSF
  protein stability index: 0.752 ± 0.0096

## RNILMFSNGVDE
  protein stability index: 0.681 ± 0.014

## SSNLLFCSIFYV
  protein stability index: 0.6181 ± 0.0021

## SGRVELGVVGGG
  protein stability index: 0.695 ± 0.04

## PRHYSPPPVPSR
  protein stability index: 0.686 ± 0.026

## PSPCPPRPPPSP
  protein stability index: 0.753 ± 0.1

## GARRVVFSSVLQ
  protein stability index: 0.774 ± 0.13

## RKISLNSPPRES
  protein stability index: 0.757 ± 0.1

## VFAHCSRHRGST
  protein stability index: 0.7103 ± 0.0029

## GSTRHFMSEKRE
  protein stability index: 0.743 ± 0.079

## GIASKCFWFVCG
  protein stability index: 0.645 ± 0.018

## DFPLISAHNTVC
  protein stability index: 0.655 ± 0.033

## LLRALPSYRPFP
  protein stability index: 0.696 ± 0.016

## ALHHPPLPHPRS
  protein stability index: 0.663 ± 0.084

## KLKACRIHEENR
  protein stability index: 0.676 ± 0.019

## TPTPGCYIASLT
  protein stability index: 0.759 ± 0.21

## VSSVSLRVRVLF
  protein stability index: 0.564 ± 0.08

## NTTCGVEQKEDK
  protein stability index: 0.649 ± 0.014

## PLDLPPLPLPPP
  protein stability index: 0.763 ± 0.15

## ERGKGSRVGGST
  protein stability index: 0.643 ± 0.1

## RKKKNQKHKKKN
  protein stability index: 0.705 ± 0.026

## PPLPAPPQSPHT
  protein stability index: 0.705 ± 0.028

## GLVRGGGGTVGG
  protein stability index: 0.81 ± 0.22
